Reference: patent publication US20160287732A1, “TUMOR THERAPY BY BISPECIFIC ANTIBODY PRETARGETING” (IMMUNOMEDICS, INC., priority 2015, published 2016)
Read-outs that look alike come from different tables or passages of the source. Numbered stars: 1 amine (or outer) side, 2 acyl side, 3 side chain; on linkers, the order of the positions; unused ones are H or OH. Square brackets hold non-standard residues; d marks the D form. Side chains are listed from the residue outwards. Ends that are not written are not given here. Peptide text beside a SMILES is read from it. * marks the point of attachment. X1 = CCc1c2c(nc3ccc(O)cc13)-c1cc3c(c(=O)n1C2)COC(=O)[C@@]3(CC)OC(=O)*; DOTA = O=C(O)CN1CCN(CC(=O)O)CCN(CC(=O)*)CCN(CC(=O)O)CC1; NH(2-(imidazol-4-yl)ethyl) = c1ncc(CCN*)[nH]1; Suc = O=C(CCC(=O)[*:2])[*:1]

Experiments:
[1] = test system: LS174 human colon cancer cell line; assay: ^111In IMP 453 biodistribution in scLS174T tumor-bearing nude mice, with or without TF2 pretargeting; type: in vivo; details: for Tissue uptake, Kidney / Tissue uptake, Tumor: 3 Hr
Source text: (§1) The higher uptake in the kidneys of pretargeted mice is probably due the presence of bispecific antibody in the blood or kidney. […] In the absence of TF2, there was little uptake of labeled peptide into the tumor (Table 5).

[2] = as above; type: in vivo; details: nude, mouse
Source text: as §1

s.c. LS174T xenografts = assay: in vivo; parameters: species or system mice; details: mouse
Procedure: (§2) IMP288 was labeled with ^213Bi and in vitro binding characteristics (IC50, Kd, internalization) were compared with those of ^177Lu-IMP288. Tumor targeting of ^213Bi-IMP288 was studied in mice with s.c. LS174T xenografts that were pretargeted with TF2 bispecific antibody. Finally, the effect of ^213Bi-IMP288 (2.5-14 MBq) on the growth of LS174T tumors was assessed.

in vivo = assay: in vivo; parameters: species or system mice; details: mouse
Procedure: as §2

LS174T tumors = assay: Effect of ^213Bi-IMP288 on growth of TF2-pretargeted LS174T tumors; type: in vivo, nude mice; details: single injection; 5 nmol TF2 then 0.28 nmol ^213Bi-IMP288
Procedure: FIG. 5. Growth curves of subcutaneous LS174T xenografts in nude mice. Mice were injected with 5 nmol TF2 bispecific antibody, followed by a single injection of 0.28 nmol ^213Bi-IMP288 or PBS.
as §2

PKA = details: cited from earlier work
TF2 (human) = assay: in vitro binding assay, format and partner not described; TF2 (anti-CEA x anti-HSG) is the pretargeting antibody of the example
Sequence of TF2 (human) (heavy, as listed by the source, chain 1 of 2): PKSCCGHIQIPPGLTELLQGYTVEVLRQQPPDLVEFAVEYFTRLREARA
Sequence of TF2 (human) (heavy, as listed by the source, chain 2 of 2): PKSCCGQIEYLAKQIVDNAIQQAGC

[3] = test system: human colorectal adenocarcinoma xenografts (LS 174T); assay: Pretargeting study with ^125I-TF2 and ^99mTc-IMP-245 in mice bearing s.c. LS 174T xenografts; type: in vivo, female athymic nude mice; details: pretargeted with TF2
Procedure: A pretargeting study was performed with TF2 in female athymic nude mice bearing s.c. human colorectal adenocarcinoma xenografts (LS 174T). Cells were expanded in tissue culture until enough cells had been grown to inject 55 mice s.c. with 1×10^7 cells per mouse. After one week, tumors were measured and mice assigned to groups of 5 mice per time-point. The mean tumor size at the start of this study was 0.105±0.068 cm^3. Twenty mice were injected with 80 μg ^125I-TF2 (500 pmoles, 2 μCi) and 16 h later administered ^99mTc-IMP-245 (40 μCi, 92 ng, 50 pmoles). The mice were sacrificed and necropsied at 0.5, 1, 4, and 24 h post-peptide injection. In addition, 3 mice of the 24 h time-point groups were imaged on a γ-camera at 1, 4, and 24 h post-injection. As a control, 3 additional mice received only ^99mTc-IMP-245 (no pretargeting) and were imaged at 1, 4, and 24 h post-injection, before being necropsied after the 24 h imaging session. Tumor as well as various tissues were removed and placed in a γ-counter to determine % ID/g in tissue at each time-point.

[4] = molecular target: DDD of the RII form of PKA (Homo sapiens, UniProt P13861); details: cited from earlier work
Sequence of DDD of the RII form of PKA (P13861 whole entry): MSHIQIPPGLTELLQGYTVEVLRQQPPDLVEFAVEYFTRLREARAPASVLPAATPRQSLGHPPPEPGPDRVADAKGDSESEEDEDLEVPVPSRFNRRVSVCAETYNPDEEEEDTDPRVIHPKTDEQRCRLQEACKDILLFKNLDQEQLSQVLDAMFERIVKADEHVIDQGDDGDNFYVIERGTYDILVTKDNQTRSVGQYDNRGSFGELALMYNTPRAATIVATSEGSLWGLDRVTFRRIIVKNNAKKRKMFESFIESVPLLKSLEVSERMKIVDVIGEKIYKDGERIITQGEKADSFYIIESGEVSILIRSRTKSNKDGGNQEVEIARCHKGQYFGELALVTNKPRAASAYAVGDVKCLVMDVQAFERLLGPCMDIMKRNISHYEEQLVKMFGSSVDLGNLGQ

RIIα dimers = RIIα dimers (Homo sapiens, UniProt P13861); details: read-out: Affinity / binding constant; cited from earlier work
Sequence of RIIα dimers (P13861 whole entry, canonical isoform): as the sequence (P13861 whole entry) above

RII isoform of PKA = RII isoform of PKA (Homo sapiens, UniProt P13861); details: cited from earlier work
Sequence of RII isoform of PKA (P13861 whole entry, canonical isoform): as the sequence (P13861 whole entry) above

[5] = blood, pretargeted with TF2, read-out: Tissue uptake, Blood
[6] = kidney, pretargeted with TF2, read-out: Tissue uptake, Kidney
[7] = large intestine, pretargeted with TF2, read-out: Tissue uptake, Lg. Int.
[8] = liver, pretargeted with TF2, read-out: Tissue uptake, Liver
[9] = lung, pretargeted with TF2, read-out: Tissue uptake, Lung
[10] = small intestine, pretargeted with TF2, read-out: Tissue uptake, Sm. Int.
[11] = spleen, pretargeted with TF2, read-out: Tissue uptake, Spleen
[12] = stomach, pretargeted with TF2, read-out: Tissue uptake, Stomach
[13] = tumor, pretargeted with TF2, read-out: Tissue uptake, Tumor

Q: Which “Tissue uptake, Kidney” value ([1]; pretargeted with TF2) does the source give for CCc1c2c(nc3ccc(O)cc13)-c1cc3c(c(=O)n1C2)COC(=O)[C@@]3(CC)OC(=O)SC[C@@H](NC(=O)CN1CCN(CC(=O)O)CCN(CC(=O)O)CCN(CC(=O)O)CC1)C(=O)N[C@H](C)C(=O)N[C@H](CCCCNC(=O)CNC(=O)CCC(=O)NCCc1cnc[nH]1)C(=O)N[C@H](Cc1ccc(O)cc1)C(=O)N[C@H](CCCCNC(=O)CNC(=O)CCC(=O)NCCc1cnc[nH]1)C(N)=O [^111In IMP 453, metal not drawn] ({DOTA}-[dC](X1)[dA][dK]([Gly-Suc-NH(2-(imidazol-4-yl)ethyl)])[dY][dK]([Gly-Suc-NH(2-(imidazol-4-yl)ethyl)])-NH2) here?
A: 21 % ID/g

Q: What about the “Tissue uptake, Tumor” value ([1]; pretargeted with TF2) of the same compound?
A: 28 % ID/g

Q: And the “Tissue uptake, Kidney” value ([1]; without bsMAb)?
A: 9.97 % ID/g

Q: What about the “Tissue uptake, Tumor” value ([1]; without bsMAb) of the same compound?
A: little uptake

Q: And the “Initial kidney uptake eliminated” value ([1]; by 24 hr, pretargeted with TF2)?
A: 50%

Q: And the Route of clearance ([1]; pretargeted with TF2)?
A: Most of the peptide was cleared by urinary excretion

Q: What about the tissue uptake at 3 h [2, 5] of the same compound?
A: 0.29 ± 0.03 %ID/g

Q: What about the tissue uptake at 3 h ([2]; blood, without bsMAb, read-out: Tissue uptake, Blood) of the same compound?
A: 0.24 ± 0.01 %ID/g

Q: What about the tissue uptake at 24 h [2, 5] of the same compound?
A: 0.09 ± 0.04 %ID/g

Q: And the tissue uptake at 48 h [2, 5]?
A: 0.04 ± 0.01 %ID/g

Q: And the tissue uptake at 3 h [2, 6]?
A: 21.1 ± 4.14 %ID/g

Q: What about the tissue uptake at 3 h ([2]; kidney, without bsMAb, read-out: Tissue uptake, Kidney) of the same compound?
A: 9.97 ± 0.94 %ID/g

Q: What about the tissue uptake at 24 h [2, 6] of the same compound?
A: 10 ± 2.45 %ID/g

Q: What about the tissue uptake at 48 h [2, 6] of the same compound?
A: 7.11 ± 1.17 %ID/g

Q: And the tissue uptake at 3 h [2, 7]?
A: 1.23 ± 1.41 %ID/g

Q: And the tissue uptake at 3 h ([2]; large intestine, without bsMAb, read-out: Tissue uptake, Lg. Int.)?
A: 0.52 ± 0.27 %ID/g

Q: What about the tissue uptake at 24 h [2, 7] of the same compound?
A: 0.23 ± 0.05 %ID/g

Q: What about the tissue uptake at 48 h [2, 7] of the same compound?
A: 0.16 ± 0.07 %ID/g

Q: And the tissue uptake at 3 h [2, 8]?
A: 0.56 ± 0.08 %ID/g

Q: What about the tissue uptake at 3 h ([2]; liver, without bsMAb, read-out: Tissue uptake, Liver) of the same compound?
A: 0.37 ± 0.18 %ID/g

Q: And the tissue uptake at 24 h [2, 8]?
A: 0.53 ± 0.19 %ID/g

Q: What about the tissue uptake at 48 h [2, 8] of the same compound?
A: 0.36 ± 0.06 %ID/g

Q: What about the tissue uptake at 3 h [2, 9] of the same compound?
A: 0.56 ± 0.1 %ID/g

Q: And the tissue uptake at 3 h ([2]; lung, without bsMAb, read-out: Tissue uptake, Lung)?
A: 0.31 ± 0.14 %ID/g

Q: And the tissue uptake at 24 h [2, 9]?
A: 0.18 ± 0.07 %ID/g

Q: What about the tissue uptake at 48 h [2, 9] of the same compound?
A: 0.14 ± 0.03 %ID/g

Q: What about the tissue uptake at 3 h [2, 10] of the same compound?
A: 0.68 ± 0.45 %ID/g

Q: What about the tissue uptake at 3 h ([2]; small intestine, without bsMAb, read-out: Tissue uptake, Sm. Int.) of the same compound?
A: 0.2 ± 0.1 %ID/g

Q: And the tissue uptake at 24 h [2, 10]?
A: 0.22 ± 0.09 %ID/g

Q: And the tissue uptake at 48 h [2, 10]?
A: 0.12 ± 0.03 %ID/g

Q: And the tissue uptake at 3 h [2, 11]?
A: 0.37 ± 0.11 %ID/g

Q: What about the tissue uptake at 3 h ([2]; spleen, without bsMAb, read-out: Tissue uptake, Spleen) of the same compound?
A: 0.22 ± 0.07 %ID/g

Q: What about the tissue uptake at 24 h [2, 11] of the same compound?
A: 0.66 ± 0.89 %ID/g

Q: What about the tissue uptake at 48 h [2, 11] of the same compound?
A: 0.25 ± 0.07 %ID/g

Q: What about the tissue uptake at 3 h [2, 12] of the same compound?
A: 0.41 ± 0.33 %ID/g

Q: What about the tissue uptake at 3 h ([2]; stomach, without bsMAb, read-out: Tissue uptake, Stomach) of the same compound?
A: 0.11 ± 0.06 %ID/g

Q: And the tissue uptake at 24 h [2, 12]?
A: 0.2 ± 0.12 %ID/g

Q: What about the tissue uptake at 48 h [2, 12] of the same compound?
A: 0.07 ± 0.01 %ID/g

Q: And the tissue uptake at 3 h [2, 13]?
A: 28.3 ± 4.03 %ID/g

Q: What about the tissue uptake at 3 h ([2]; tumor, without bsMAb, read-out: Tissue uptake, Tumor) of the same compound?
A: 0.37 ± 0.09 %ID/g

Q: What about the tissue uptake at 24 h [2, 13] of the same compound?
A: 15.4 ± 1.18 %ID/g

Q: What about the tissue uptake at 48 h [2, 13] of the same compound?
A: 9.69 ± 1.97 %ID/g

Q: Which results are given for NC(=O)[C@@H](CCCCNC(=O)CNC(=O)CCC(=O)NCCc1c[nH]cn1)NC(=O)[C@@H](CCC(=O)O)NC(=O)[C@@H](CCCCNC(=O)CNC(=O)CCC(=O)NCCc1c[nH]cn1)NC(=O)[C@@H](Cc1ccc(O)cc1)NC(=O)CN1CCN(CC(=O)O)CCN(CC(=O)O)CCN(CC(=O)O)CC1 [^213Bi-IMP288, metal not drawn] ({DOTA}-[dY][dK]([Gly-Suc-NH(2-(imidazol-4-yl)ethyl)])[dE][dK]([Gly-Suc-NH(2-(imidazol-4-yl)ethyl)])-NH2)?
A: Tumor targeting relative to ^177Lu-IMP288 (s.c. LS174T xenografts): comparable; tissue uptake at 0.25 h (in vivo): 9.3 ± 2 %ID/g; Tumor growth (LS174T tumors): significantly inhibited

Q: With DLIEEAASRIVDAVIEQVKAAGAY [Ht-31] as the compound, how does the PKA isoform preference (PKA) read?
A: greater affinity for the RII isoform

Q: With FEELAWKIAKMIWSDVFQQC [PV-38] as the compound, how does the PKA isoform preference (PKA) read?
A: higher affinity for RI

Q: With IMP288 (peptide) as the compound, how does the IQ (TF2 (human)) read?
A: 0.8 nM

Q: What does the source list for “IMP-245: di-HSG-based peptide effector labeled with ^99mTc (FKYKK; not fully specified; also: labelled with 99mTc)”?
A: Tumor uptake ([3]; 0.5 h post-peptide injection): 22±3 % ID/g; Tumor uptake ([3]; 1 h post-peptide injection): 30±14 % ID/g; Tumor uptake ([3]; 4 h post-peptide injection): 25±4 % ID/g; Tumor uptake ([3]; 24 h post-peptide injection): 16±3 % ID/g

Q: With LEQYANQLADQIIKEATE [RIAD] as the compound, how does the PKA isoform preference (PKA) read?
A: higher affinity for RI

Q: For “PEDAELVRLSKRDVENAVLKAVQQY [AKAP7δ-L308D-pep]”, which “Affinity for the RII DDD sequence” value [4] is on record?
A: particularly high affinities

Q: With “PEDAELVRLSKRLVENAVLKAVQQY [AKAP7δ-wt-pep]” as the compound, how does the “Affinity for the RII DDD sequence” value [4] read?
A: particularly high affinities

Q: Which “Affinity for the RII DDD sequence” value [4] does the source give for “PEDAELVRTSKRLVENAVLKAVQQY [AKAP7δ-L304T-pep]” here?
A: particularly high affinities

Q: Which “Affinity for the RII DDD sequence” value [4] does the source give for QIEYLAKQIVDNAIQQA [AKAP-IS] here?
A: particularly high affinities

Q: And the Kd (RIIα dimers)?
A: 400 pM

Q: With QIEYVAKQIVDYAIHQA [SuperAKAP-IS] as the compound, how does the “Selectivity for the RII isoform of PKA compared with the RI isoform” value (RII isoform of PKA) read?
A: five order of magnitude higher
